The values that follow come from article PMC8775132, “Complement-Mediated Selective Tumor Cell Lysis Enabled by Bi-Functional RNA Aptamers”.

Data set [1] concerns the target complement C3b (human, UniProt P01024;P01024 23-667;749-1663). In words: EMSA; 250 nM protein; 20 mM HEPES pH 7.4, 150 mM NaCl, 10 mM MgCl2, BSA and yeast RNA 1 ug/20 uL each, 45 min at 37 C. The conditions noted are these: protein: native; copies: 1;1; label: 32P.
The target in data set [2] is T1, complement iC3b (human, UniProt P01024;P01024;P01024 23-667;749-1303;1321-1663). The data set is described as above. The conditions noted are these: protein: native; copies: 1;1;1; label: 32P.
Data set [3] concerns the target T1, complement iC3b. Briefly: filter binding; 20 mM HEPES pH 7.4, 150 mM NaCl, 10 mM MgCl2, BSA and yeast RNA 1 ug/20 uL each, 45 min at 37 C. The conditions noted are these: protein: native; copies: 1;1;1; label: 32P.
For data set [4], the target named is complement C3 (human, UniProt P01024;P01024 23-667;672-1663). Described as above. Conditions: protein: native; copies: 1;1; label: 32P.
complement C3, sequence (P01024 23-667, chain 1 of 2): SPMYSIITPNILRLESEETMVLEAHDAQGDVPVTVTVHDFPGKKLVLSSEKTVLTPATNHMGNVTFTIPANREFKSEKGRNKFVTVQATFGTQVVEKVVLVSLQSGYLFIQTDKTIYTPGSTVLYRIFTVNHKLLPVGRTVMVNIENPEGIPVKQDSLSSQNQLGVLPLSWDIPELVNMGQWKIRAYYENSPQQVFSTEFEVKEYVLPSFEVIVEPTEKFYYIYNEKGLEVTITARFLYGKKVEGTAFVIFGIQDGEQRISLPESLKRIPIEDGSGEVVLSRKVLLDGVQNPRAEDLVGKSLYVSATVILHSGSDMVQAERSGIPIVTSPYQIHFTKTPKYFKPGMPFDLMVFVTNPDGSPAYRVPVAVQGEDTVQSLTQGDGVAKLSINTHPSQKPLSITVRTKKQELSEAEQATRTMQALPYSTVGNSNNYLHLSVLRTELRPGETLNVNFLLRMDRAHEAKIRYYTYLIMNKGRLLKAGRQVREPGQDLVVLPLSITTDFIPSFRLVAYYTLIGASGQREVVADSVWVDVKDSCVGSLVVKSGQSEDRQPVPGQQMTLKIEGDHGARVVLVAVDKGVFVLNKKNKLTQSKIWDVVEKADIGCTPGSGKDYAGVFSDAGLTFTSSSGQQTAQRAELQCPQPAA
complement C3, sequence (P01024 672-1663, chain 2 of 2): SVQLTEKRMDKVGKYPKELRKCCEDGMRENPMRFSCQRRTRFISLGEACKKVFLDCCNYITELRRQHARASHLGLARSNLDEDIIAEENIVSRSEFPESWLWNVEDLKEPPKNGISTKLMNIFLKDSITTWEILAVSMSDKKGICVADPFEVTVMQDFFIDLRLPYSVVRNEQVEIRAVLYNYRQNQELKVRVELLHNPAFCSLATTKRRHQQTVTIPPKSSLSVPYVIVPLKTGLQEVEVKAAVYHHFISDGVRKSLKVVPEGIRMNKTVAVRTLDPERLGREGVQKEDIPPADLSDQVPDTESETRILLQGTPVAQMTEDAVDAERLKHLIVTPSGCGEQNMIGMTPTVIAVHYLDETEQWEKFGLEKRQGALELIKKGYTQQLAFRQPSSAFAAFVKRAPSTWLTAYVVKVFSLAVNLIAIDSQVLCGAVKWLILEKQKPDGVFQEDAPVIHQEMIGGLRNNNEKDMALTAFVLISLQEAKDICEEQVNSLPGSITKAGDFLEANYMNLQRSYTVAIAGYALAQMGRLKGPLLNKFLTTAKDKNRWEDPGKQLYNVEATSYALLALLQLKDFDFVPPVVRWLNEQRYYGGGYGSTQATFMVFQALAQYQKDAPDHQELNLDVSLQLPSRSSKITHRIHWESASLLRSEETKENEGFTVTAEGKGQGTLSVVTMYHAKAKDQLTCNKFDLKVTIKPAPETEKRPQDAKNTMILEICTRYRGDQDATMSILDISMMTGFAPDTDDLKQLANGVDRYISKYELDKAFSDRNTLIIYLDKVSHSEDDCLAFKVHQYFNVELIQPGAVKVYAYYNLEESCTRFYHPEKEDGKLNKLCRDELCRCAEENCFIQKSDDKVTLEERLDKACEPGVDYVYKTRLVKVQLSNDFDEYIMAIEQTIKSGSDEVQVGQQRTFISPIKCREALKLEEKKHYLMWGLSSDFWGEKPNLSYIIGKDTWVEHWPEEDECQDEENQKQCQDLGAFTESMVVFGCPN

complement C3b, sequence (P01024 23-667, chain 1 of 2): as the sequence (P01024 23-667, chain 1 of 2) above
complement C3b, sequence (P01024 749-1663, chain 2 of 2): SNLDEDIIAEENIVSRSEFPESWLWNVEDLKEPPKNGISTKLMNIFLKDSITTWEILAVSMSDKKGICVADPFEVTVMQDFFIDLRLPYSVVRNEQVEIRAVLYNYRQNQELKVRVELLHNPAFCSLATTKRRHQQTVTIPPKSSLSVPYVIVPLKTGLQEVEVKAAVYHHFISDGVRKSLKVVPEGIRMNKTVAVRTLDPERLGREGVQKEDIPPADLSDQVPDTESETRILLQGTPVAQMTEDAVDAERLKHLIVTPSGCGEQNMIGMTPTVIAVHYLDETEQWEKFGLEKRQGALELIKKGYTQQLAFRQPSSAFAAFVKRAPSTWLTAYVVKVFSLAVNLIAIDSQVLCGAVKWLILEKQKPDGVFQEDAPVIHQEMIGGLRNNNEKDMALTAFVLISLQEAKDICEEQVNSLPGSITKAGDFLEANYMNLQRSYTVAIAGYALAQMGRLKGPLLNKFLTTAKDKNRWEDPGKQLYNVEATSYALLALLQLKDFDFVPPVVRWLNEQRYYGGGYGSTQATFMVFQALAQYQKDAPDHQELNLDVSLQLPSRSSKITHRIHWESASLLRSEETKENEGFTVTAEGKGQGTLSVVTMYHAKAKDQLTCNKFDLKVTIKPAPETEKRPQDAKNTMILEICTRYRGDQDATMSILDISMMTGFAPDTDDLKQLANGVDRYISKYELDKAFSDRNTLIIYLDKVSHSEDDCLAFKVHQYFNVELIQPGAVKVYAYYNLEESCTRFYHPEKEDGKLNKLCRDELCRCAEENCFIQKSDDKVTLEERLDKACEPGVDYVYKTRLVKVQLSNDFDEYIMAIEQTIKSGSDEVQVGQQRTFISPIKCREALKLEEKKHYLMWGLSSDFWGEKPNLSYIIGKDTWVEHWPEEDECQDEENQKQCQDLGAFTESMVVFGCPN
T1 sequence (P01024 23-667, chain 1 of 3): as the sequence (P01024 23-667, chain 1 of 2) above
T1 sequence (P01024 749-1303, chain 2 of 3): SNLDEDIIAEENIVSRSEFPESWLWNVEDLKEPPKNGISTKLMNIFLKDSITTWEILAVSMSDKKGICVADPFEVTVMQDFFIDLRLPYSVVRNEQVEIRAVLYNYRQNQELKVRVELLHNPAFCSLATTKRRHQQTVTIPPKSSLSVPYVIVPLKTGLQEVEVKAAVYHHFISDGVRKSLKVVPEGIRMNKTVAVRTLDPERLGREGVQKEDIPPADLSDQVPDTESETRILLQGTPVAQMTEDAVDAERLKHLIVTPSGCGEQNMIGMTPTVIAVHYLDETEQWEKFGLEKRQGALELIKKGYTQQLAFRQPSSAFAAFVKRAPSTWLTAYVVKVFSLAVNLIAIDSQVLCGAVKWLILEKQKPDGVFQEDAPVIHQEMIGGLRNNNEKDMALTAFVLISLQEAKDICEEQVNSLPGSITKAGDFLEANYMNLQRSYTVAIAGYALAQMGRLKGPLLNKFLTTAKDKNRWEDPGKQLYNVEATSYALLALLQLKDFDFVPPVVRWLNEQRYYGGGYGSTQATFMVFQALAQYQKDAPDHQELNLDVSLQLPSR
T1 sequence (P01024 1321-1663, chain 3 of 3): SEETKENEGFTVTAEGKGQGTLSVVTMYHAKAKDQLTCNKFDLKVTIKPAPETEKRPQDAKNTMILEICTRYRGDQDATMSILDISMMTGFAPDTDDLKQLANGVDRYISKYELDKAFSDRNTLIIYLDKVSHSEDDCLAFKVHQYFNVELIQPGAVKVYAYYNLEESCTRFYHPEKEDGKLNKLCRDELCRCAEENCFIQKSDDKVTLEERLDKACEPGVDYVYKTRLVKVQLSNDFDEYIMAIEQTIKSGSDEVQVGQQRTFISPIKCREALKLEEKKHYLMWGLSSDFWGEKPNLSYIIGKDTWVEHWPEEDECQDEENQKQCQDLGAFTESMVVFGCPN

B1: AptC3-VI (structured_RNA)
RNA: GGGAGAAUUCAACUGCCAUCUAACCACGUAGUAAUACGGUAUGAUCCAGUUUUAAUUCUAACCAGACUGUUCAGAUGACUACAAGCUUCUGGACUCGGU
modifications: 2'-fluoro pyrimidines
As for B1, the binding result in data set [1] was “binds”.

B2: AptC3-IV (structured_RNA)
RNA: GGGAGAAUUCAACUGCCAUCUAGUUGCAAAAACAUGAGGAUAGCAAAGUACCAGUGCAACUAACAAGGAAAAGAAGACGGACUACAAGCUUCUGGACUCGGU
modifications: 2'-fluoro pyrimidines
Consider B2, for which the binding result in data set [1] and in data set [2] was “binds” throughout.

B3: AptC3-III (structured_RNA)
RNA: GGGAGAAUUCAACUGCCAUCUACAGCCCCUCGGCCGCGUUCAGCGUCUAACCUUGGGCUGUAUAGAAAGGGUUUCCAGACUACAAGCUUCUGGACUCGGU
modifications: 2'-fluoro pyrimidines
By Kd is commonly meant a measure of binding affinity in units of concentration. On to B3, for which the Kd stood at 14.5 nM in data set [3] and 17 nM in data set [4].
